Patent US20060110356A1, “Ophthalmic drug delivery system using polymer micelle” (NANOCARRIER KABUSHIKI KAISHA, priority 2003, published 2006)

Tests used:
[1] = system: choroidal neovascular (CNV) model; assay: Intraocular transfer of fluorescent-labelled PIC micelle in rat CNV model (fluorescence microscopy of frozen sections); assay type: in vivo, BN rat; details: intravenous, 400 μL of 5 mg/mL in physiological saline
Procedure: A diblock copolymer having polyethylene glycol (PEG) as a hydrophilic polymer chain, and polyaspartic acid (P(Asp)) as an anionic polymer chain within one molecule was dispersed in water, and mixed with FITC-labelled polylysine (FITC-P(Lys)) to prepare a core-shell type PIC micelle solution (5 mg/mL) having a core of a polylon complex (PIC) consisting of P(Asp) and FITC-P(Lys), and a shell of PEG.
After generally anesthetizing a BN rat by intramuscular administration of 1 mL/kg of a mixture of a 5% ketamine hydrochloride injection and a 2% xylazine hydrochloride injection (7:1), eye drops of a 0.5% tropicamide-0.5% phenylephrine hydrochloride ophthalmic solution were administered to render mydriasis. Then, photocoagulation was carried out with a semiconductor laser photocoagulator. Photocoagulation was carried out on six scattering positions per one eye in a posterior portion of the ocular fundus while focusing on retinal deep layer (coagulation conditions: spot size 75 μm, output 200 mW, coagulation time 0.05 sec) such that irradiation of large retinal vessels was avoided. […]
Following administration, the eyeball was removed after a predetermined time, and a frozen tissue section was prepared. Thereafter, leakage of the fluorescence to the choroidal neovascular site was qualitatively observed by a fluorescence microscope.

skin = details: rat, in vivo, iv
Procedure: As a comparative control, Photofrin was administered under the same condition.
Four hours after the administration, a xenon lamp was irradiated on the shaved part (wavelength: 377-700 nm, power density: 30 mW/cm^2, irradiation area: 4 cm^2).

Row | Substance | toxicity (death of animal) [1] | photosensitive erethism on the skin (skin)
1 | FITC-labelled polylysine [FITC-P(Lys)] | the animal died one hour after the administration due to its toxicity | 
2 | Photofrin |  | photosensitive erethism was found
